Data set [1] addresses RADA16 peptide, as RADA16 peptide gel. Briefly: incorporation into the peptide gel; unincorporated fraction in PBS washes measured by sandwich ELISA. On the technique in general: In an ELISA, binding on a coated surface is turned into a signal by an enzyme label.
Data set [2] is described as follows: Rheological property of the peptide gel (rheometer, storage elastic modulus G′ and loss elastic modulus G″). The format is physicochemical. To be noted: peptide concentration 1.0% by weight. As for the experimental part: Among gels having a concentration of 1.0% by weight prepared in Example 1, gels formed by six types of peptide samples as examples: […] peptide (SEQ ID NO: 1), […] peptide (SEQ ID NO: 2), […] peptide (SEQ ID NO: 4), […] peptide (SEQ ID NO: 5), […] peptide (SEQ ID NO: 6), and […] peptide (SEQ ID NO: 8) were subjected to measurement of the rheological property thereof.
The rheological property was measured for 250 μL of a sample with a rheometer (Malvern Panalytical, Kinexus lab+). Specifically, the sample was sandwiched at a gap of 0.2 mm between plates, and subjected to measurement at 20° C.
The storage elastic modulus G′ and the loss elastic modulus G″ of a gel formed by each peptide are obtained by measurement of the rheological property. The storage elastic modulus G′ represents a component stored in an object, of the energy generated by an external force to the object and a strain, and the loss elastic modulus G″ represents a component externally diffused. In a case where a measurement specimen is a gel, the storage elastic modulus G′ generally exceeds the loss elastic modulus G″.

The conditions of data set [3]: cited from earlier work.
A short description of data set [4]: Fluidity test (gel formation ability) of peptide samples. It is filed as physicochemical. Conditions: 1.0% by weight in D-MEM (44 mM NaHCO3, pH 7.4), 37°C, CO2 5%, 48 hours. As for the experimental part:
A peptide powder after freeze-drying at 2.5 mg and 250 μL of D-MEM (containing 1×penicillin, 4.0 mM HEPES, 44 mM NaHCO3; pH 7.4) were added to a 1-mL microtube (glass container having an inner diameter of 5 mm and a height of 5 cm; Maruemu Corporation, Model No. 1), and ultrasound was irradiated in a water bath type ultrasonic apparatus (AS12GTU, 35 kHz, 60 W), to thereby disperse the peptide at a concentration of 1.0% by weight. Thereafter, the microtube was left to stand in a CO2 incubator (37° C., CO2 concentration 5%) for 48 hours in a state standing vertically with the bottom surface thereof facing downward. Penicillin (Life Technologies Corporation, Model No. 15140148) was used as an antibacterial agent at 100 U/mL for the purpose of prevention of mold generation, and a CO2 incubator was used for performing gelling in a condition similar to an in vivo condition.
In order to test whether the peptide sample lost fluidity and gelled, the sample was sealed in a CO2 incubator (37° C., CO2 concentration 5%) and taken out of the incubator, the microtube was rapidly flipped vertically, and a photograph of the peptide sample was taken and recorded. In a case where a portion or all of the peptide sample remained on the bottom surface side of the microtube, the peptide sample was determined to have lost fluidity and gelled. On the other hand, in a case where all of the peptide sample dropped to the cap side of the microtube, the peptide sample was determined not to have gelled.
Additional five types of peptides: […] (SEQ ID NO: 41), […] (SEQ ID NO: 42), […] (SEQ ID NO: 43), […] (SEQ ID NO: 44), and […] (SEQ ID NO: 45) were synthesized according to the same methods as in (1) to (3) of Example 1, and were subjected to gelling and fluidity test.

The test system of data set [5] is mouse fetus-derived 3T3 cells (NIH3T3 cells). Briefly: Evaluation of cell adhesiveness on peptide-coated chamber slide. It is filed as cell-based. Conditions: 30 minutes on peptide-coated slide, compared with (RADA)4 peptide control. As for the experimental part:
A peptide sample having a concentration of 1.0% by weight was prepared by the same method as in Example 1. The peptide sample at 50 μL was dropped on a chamber slide (Merck Millipore, Millicell EZ 8-well glass) and dried under reduced pressure using a centrifugal concentrator (TAITEC CORPORATION, VC-96W), to thereby produce a chamber slide coated with the peptide. After 1.8×10^5 of mouse fetus-derived 3T3 cells (NIH3T3 cells) were suspended in 250 μL of a DMEM medium (containing 44 mM NaHCO3, Gibco, 11995-065) containing 10% serum and seeded onto the chamber slide coated with the peptide, incubation was performed in a CO2 incubator (37° C., CO2 concentration 5%) for 30 minutes. The chamber slide was washed with PBS, and cells not adhering thereto were removed. The adhering cells remaining after the washing were immobilized with 4% PFA, and then subjected to DAPI staining. The number of adhering cells was measured according to stereology as a strict quantitative determination technique which eliminates sampling biases. Specifically, nine frames of 100 μm×100 μm were created in a region of 300 μm×300 μm, and the number of cells in each of the frames was counted. The resulting number of cells was converted into the number of cells in a region of 1 mm×1 mm. In the present Example, a (RADA)4 peptide (SEQ ID NO: 19), which is known to form a cell-adhesive peptide gel, was used as a control.

Data set [6] in a line: Circular dichroism spectrum of peptide gels. The format is physicochemical. Conditions: 1.0% by weight peptide gel. The text has this:
The “circular dichroism” refers to a phenomenon in which a difference in absorbance occurs between left-handed circularly polarized light and right-handed circularly polarized light when a protein absorbs a circularly polarized light.
Among the peptide gels having a concentration of 1.0% by weight prepared in Example 1, three types of peptides as examples: […] peptide (SEQ ID NO: 4), […] peptide (SEQ ID NO: 2), and […] peptide (SEQ ID NO: 5) were subjected to measurement of circular dichroism spectra at 20° C., 40° C., 60° C., and 80° C. and circular dichroism spectra when re-cooled from 80° C. to 20° C.
The circular dichroism spectrum was measured with a JASCO J-1100 CD Spectrometer by using an assembly cell (GL Sciences, AB20-UV-0.1, cell length 0.1 mm). The measurement range was from 190 to 400 nm, the data-obtaining interval was 0.2 nm, the scanning speed was 200 nm/min, and the specimen concentration was 1.0% by weight. When the circular dichroism spectrum was measured, the temperature was controlled with JASCO temperature regulation unit and a water-cooled Peltier cell holder PTC-514.
A general note: CD spectra are sensitive to the conformation of chiral molecules.

Read-outs that look alike come from different tables or passages of the source.

For the substance “GFP-RADA16 fusion peptide (from UniProt P42212 1-238)”, the incorporation rate in data set [1] is below 70%.
With “RADARADARADARADA [(RADA)4, reference compound]”, the “G' (Pa)” value in data set [2] (2.2% TFA aq.) is 265 Pa; in data set [3] (pH 3-4, peptide concentration 1.0% by weight) it was 30^*3 Pa.
Take RIDADMRARIR: the “gelling (loss of fluidity after vertical flipping of the microtube)” value in data set [4] is “gelled”. For the same substance, in data set [2] (DMEM (pH 7.4), 20°C), the “G' (Pa)” value was 47,500 Pa.
As to RIDARMDARIR, the “gelling (loss of fluidity after vertical flipping of the microtube)” value in data set [4] is listed as “gelled”. The “G' (Pa)” value in data set [2] (DMEM (pH 7.4), 20°C) is on record as 58,300 Pa. Besides, in data set [5], the “cell adhesiveness (number of adhering cells)” value (shortened to “cell adhesiveness”) is given as “comparable with or more than a (RADA)4 peptide”. Besides, in data set [6], the “circular dichroism signal (β-sheet structure)” value (“circular dichroism signal” for short) is “negative cotton effect around 220 nm”.
On to RIDARMRADIR, for which, in data set [4], the “gelling (loss of fluidity after vertical flipping of the microtube)” value is given as “gelled”. The “G' (Pa)” value in data set [2] (DMEM (pH 7.4), 20°C) is reported as 21,300 Pa. In data set [5], the “cell adhesiveness” value is “comparable with or more than a (RADA)4 peptide”. The “circular dichroism signal” value in data set [6] is “negative cotton effect around 220 nm”.
Regarding RIDARMRADMR, in data set [4], the “gelling (loss of fluidity after vertical flipping of the microtube)” value is “gelled”.
The same measure, in the same setting: the same measure for RIRADIRADMR: “gelled”; for RIRADIRGDIR: “gelled”; for RIRADMDARIR: “gelled”.
Take RIRADMRADIR: in data set [4], the “gelling (loss of fluidity after vertical flipping of the microtube)” value is reported as “gelled”. Moreover, the “G' (Pa)” value in data set [2] (DMEM (pH 7.4), 20°C) is 4,830 Pa. For the same substance, the “cell adhesiveness” value in data set [5] was “comparable with or more than a (RADA)4 peptide”. Also, the “circular dichroism signal” value in data set [6] is on record as “negative cotton effect around 220 nm”.
With RIRADMRGDIR, in data set [4], the “gelling (loss of fluidity after vertical flipping of the microtube)” value is recorded as “gelled”.
As to RIRARMDADIR, the “gelling (loss of fluidity after vertical flipping of the microtube)” value in data set [4] is on record as “gelled”. Moreover, the “G' (Pa)” value in data set [2] (DMEM (pH 7.4), 20°C) is listed as 6,500 Pa.
As to RIRGDIRADIR, in data set [4], the “gelling (loss of fluidity after vertical flipping of the microtube)” value is recorded as “gelled”.
Still for that read-out and setting: the same measure for RIRGDIRGDIR: “gelled”; for RIRGDMRADIR: “gelled”.
Take RIRGDMRGDIR: the “gelling (loss of fluidity after vertical flipping of the microtube)” value in data set [4] was “gelled”. Besides, the “G' (Pa)” value in data set [2] (DMEM (pH 7.4), 20°C) is 47,800 Pa.
Turning to “RLDLRLALRLDLR [SPG178, known peptide gelling agent]”, the “G' (Pa)” value was 70^*3 Pa in data set [3] (pH 7, peptide concentration 1.0% by weight) and 300^*3 Pa in data set [3] (pH 7, peptide concentration 1.5% by weight).
RMDADMRARIR: in data set [4], the “gelling (loss of fluidity after vertical flipping of the microtube)” value is reported as “gelled”.
On the same count and under the same terms, as for RMDARIDARIR, the entry is “gelled”; as for RVDVDVRVRVR, “did not gel”.
On the same count and under the same terms, as for RVDVRVDVRVR, the entry is “did not gel”; as for RVDVRVRVDVR, “did not gel”; as for RVRVDVDVRVR, “did not gel”.
The same measure, in the same setting: as for RVRVDVRVDVR, the entry is “did not gel”.
Take RVRVRVDVDVR: in data set [4], the “gelling (loss of fluidity after vertical flipping of the microtube)” value is listed as “did not gel”.
